Results taken from the supplement of paper PMC10567573.

B1: TRIM15 (parent)
chain: LLARLRELEQQIWKERDEYITKVS
B2: PRIM1 (parent)
chain: CCSSADICPKCWTLMTMAIRIIDR

Variants of: B1
Test: protein stability index of a GFP-peptide fusion (GPS, HEK-293T) (PSI 1-6); higher = more stable
Settings: c terminus: a fixed tail appended
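Also: lentivirally expressed fusions sorted by FACS into six bins by GFP to DsRed ratio, PSI derived from sequencing read proportions per bin multiplied by bin number.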

Protein stability index: each site, then its substitutions
D17: R 2.14, Y 3.07, T 2.08, Q 3.32
V23: D 3.9, H 1.86, A 1.5, W 1.7, P 1.26, Q 1.71, I 1.86, S 2.25, L 2, N 1.64, Y 2.4, T 1.63, M 2.03, R 1.57, F 1.69, C 2.1
I20: M 1.71, N 1.63, P 1.6, S 2.18, H 2.12, G 2.17, L 1.33, A 1.3, C 1.08, E 4.11, D 2.11, R 2.91, Y 3.1, Q 2.09, K 2.1, F 3.15
Y19: D 2.12, S 1.71, M 2.21, Q 2.13, T 1.67, W 2.07, N 1.91, E 1.39, L 1.98, P 1.55
S24: R 1.93, L 1.95, V 3, E 1.38, Y 2.94, H 2.29, N 1.52, T 1.31, C 2.05, I 2.42, F 1.51, K 1.44, D 3.02, M 2.12, A 1.63, P 1.82
E18: M 2.33, Q 1.18, G 1.81, N 2.08
T21: K 1.48, P 2.59, D 1.32, Y 2.02, A 2.07, H 1.49, N 1.7, W 2.63, Q 2.41, I 2.45, L 2.39
K22: W 2.06, Y 1.9, C 1.94, I 1.78, V 1.97, T 1.43, N 1.38, G 2.25, P 1.23, F 1.72, A 2.38, R 2.46, D 1.97

Variants of: B2
Test: as above
Settings: c terminus: a fixed tail appended

Protein stability index of substitutions, site by site:
S3: D 1.56, Q 2.08, Y 2.43, M 2.7, I 1.87, C 1.65, T 1.53, W 1.42, R 1.9, F 1.51, K 1.45, A 1.82, L 2.32, P 1.28, N 1.95, H 2.16, E 2.04
S4: H 1.72, M 2.97, A 1.87, R 2.42, L 2.24, T 1.63, W 1.51, N 1.72, I 1.79, P 1.67, F 2.39, E 2.11, C 2.72, V 2.19, K 2.2, Q 2.66, Y 1.91, G 1.85, D 1.48
C1: F 1.5, Q 1.85, E 1.6, T 2.12, G 1.88, P 1.78, H 1.87, W 2.25, Y 1.37, K 1.61, M 2.5, N 1.49, L 2, I 1.53, S 1.79, V 2.87, D 2.01, R 2.01
M15: Q 1.95, R 2.35, A 2.96, F 1.47, I 2.87, E 2.01, C 1.77, P 2.13, N 2.29, G 1.69, D 2.03, H 2.25, L 1.59, K 2.45
I7: E 2.21, K 2.65, W 2.16, V 1.88, M 1.52, L 2.56, R 1.85, H 1.91, D 2.35, Q 2.05, N 1.69, S 1.72, F 2.63, C 1.94, T 1.77, P 2.07, Y 1.57, A 1.87, G 1.98
C11: F 2.58, I 2.4, D 3.13, W 2.84, A 4.39, K 1.82, T 1.76, E 3.11, H 2.43
C8: S 1.54, R 3.94, N 2.83, L 3.02, A 3.21, K 2.95, V 2.88, Q 1.8, I 3.3
W12: S 2.23, A 2.29, G 2.2, L 1.56, R 2.56, N 1.83, E 2.05, I 1.83, T 1.88, Y 2.48, H 2.19, Q 2.75, D 1.71, M 2.02, F 1.69, C 1.83, V 1.23, K 2.64, P 1.48
A5: P 1.62, C 2.01, T 2.98, K 1.93, L 1.15, W 2.15, Q 1.51, N 1.54, G 1.7, R 1.67, D 1.41, I 1.33, Y 3.67, V 1.64, H 1.71, F 2.5, S 2.63, M 1.79
C2: V 2.06, M 2.48, W 1.78, N 2.03, R 1.91, D 2.41, H 1.69, K 1.45, L 2.55, S 1.96, G 1.6, Y 1.96, F 1.83, P 2.21, Q 1.9, A 2.49, E 1.83, I 1.74
L14: E 2.06, V 1.8, G 1.27, T 2.89, Y 1.71, H 1.6, R 2.18, I 1.75, K 2, Q 1.9, S 2.39, M 1.55, P 2.27, A 2.21, D 1.95, F 2.06, W 2.62, N 1.82, C 1.8
K10: D 3.36, M 1.92, Y 1.85, C 2.62, N 1.81, L 2.14, E 1.56, Q 1.98, F 1.95, T 2.71, H 2, R 2.3
D6: F 2.11, M 2.15, V 1.47, E 2.22, S 1.86, K 2.14, G 1.47, C 1.62, W 2.91, N 1.86, H 2.49, R 1.51, I 1.91, A 1.7, P 2.13, Y 1.58, T 2.29, Q 2.44
T13: S 1.96, M 1.59, A 2.63, G 1.91, Y 2.19, D 1.61, I 2.13, W 2.31, P 1.3, E 1.88, L 1.49, K 2.46, N 1.38, C 2.04, F 1.53, Q 2.18
P9: R 1.73, H 2.29, C 2.43, S 1.96, F 1.59, A 1.53, K 2.69, Q 1.67, M 1.86, I 1.78, W 1.35, T 1.47, G 1.9, E 1.33, D 1.64, N 1.29, V 2.27, Y 1.55, L 1.77
